According to patent US12709742B2, “RNA expression modulating or editing method via regulation of Cas13 protein” (Korea Advanced Institute of Science and Technology, priority 2021, dated 2026):

Test system: Firefly luciferase target RNA
Test: Dual luciferase reporter assay of paCas13 fragments under blue light stimulation
Format: cell-based
Details: 488 nm blue light for 24 hours
Method: Specifically, to evaluate the changes in protein levels, HEK293T cells (ATCC) were co-transfected with 10 ng of a double luciferase reporter plasmid (Promega), 75 ng of each inducible Cas13 fragment expressing the plasmid, and 100 ng of a crRNA expression plasmid. 16 hours prior to transfection, the cells were placed in a 96-well plate (Corning) and allowed to grow until reaching 80% confluency. On the next day, 10 μL of Opti-MEM and 10 μL of Opti-MEM containing 0.6 μL of lipofectamine LTX and 0.26 μL of PLUS reagent and all transfected DNA plasmids were mixed, and a total of 20 μL of Opti-MEM I reducing serum medium (ThermoFisher) was added to each well. All solutions were incubated for 5 minutes before slowly added to the cells. […] The experiment was performed in triplicate. The decrease in the target RNA, the Firefly transcript, was confirmed by comparing the expression value at the protein level of the control group Renilla.
Luciferase reporter assay was performed to confirm whether the Cas13b protein was activated by light stimulation when the construct designed in Example 3 was used.
To test the light-inducible RNA targeting of paCas13, the target RNA knockdown activity of paCas13 fragments was evaluated using a dual luciferase system under the blue light stimulation for 24 hours with an LED plate emitting 488 nm of blue light (FIG. 8). […]

Target mRNA cleavage with pMag in combination with dimerization partner: Efficient target mRNA cleavage was seen
B1: nMagH: paCas13 fragments fused with pMag and nMagH (nMag with M135I and M165I mutations) (protein)
chain: HTLYAPGGYDIMGYLDQIGNRPNPQVELGPVDTSCALILCDLKQKDTPIVYASEAFLYMTGYSNAEVLGRNCRFLQSPDGMVKPKSTRKYVDSNTINTIRKAIDRNAEVQVEVVNFKKNGQRFVNFLTIIPVRDETGEYRYSMGFQCETE
modifications: nMagHigh1 amino acid sequence
